Target: ApoE2 (C112S, C158S, A102C), labeled with Alexa488 or Alexa546 at position 102
Assay: FRET or BRET

k−1 (dissociation, dimer to monomers): 0.00066 s⁻¹ | k−2 (dissociation, tetramer to dimers): 0.0036 s⁻¹
Substance: ApoE2 (C112S, C158S, A102C), labeled with Alexa488 or Alexa546 at position 102 (natural protein)

From publication PMC3038193
